{
  "source": "paper PMC9896449",
  "key": {"[1]": {"target": "ShAb01H02K (knob-in-hole heterodimer of ShAb01-Fc and ShAb02-Fc) (nurse shark (Ginglymostoma cirratum))", "assay": "BLI"}, "[2]": {"target": "BiShAb0201 (ShAb02 VNAR - (GGGGS)5 - ShAb01 VNAR - human IgG1 Fc) (nurse shark (Ginglymostoma cirratum))", "assay": "BLI"}},
  "data": [
    {"substance": "SARS-CoV-2 RBD B.1.617, Kappa (L452R, E484Q) (from UniProt P0DTC2 331-527) (domain or fragment)", "values": [
      {"measurement": "Kd", "setting": "[1]", "value": 2.2, "unit": "nM"},
      {"measurement": "koff", "setting": "[1]", "value": 0.000326, "unit": "s⁻¹"},
      {"measurement": "kon", "setting": "[1]", "value": 151000, "unit": "M⁻¹ s⁻¹"},
      {"measurement": "Kd", "setting": "[2]", "value": 4.4, "unit": "nM"},
      {"measurement": "koff", "setting": "[2]", "value": 0.000238, "unit": "s⁻¹"},
      {"measurement": "kon", "setting": "[2]", "value": 53600, "unit": "M⁻¹ s⁻¹"}
    ]},
    {"substance": "SARS-CoV-2 RBD B.1.1.7, Alpha (N501Y) (from UniProt P0DTC2 331-527) (domain or fragment)", "values": [
      {"measurement": "Kd", "setting": "[1]", "value": 1.5, "unit": "nM"},
      {"measurement": "koff", "setting": "[1]", "value": 0.000513, "unit": "s⁻¹"},
      {"measurement": "kon", "setting": "[1]", "value": 341000, "unit": "M⁻¹ s⁻¹"},
      {"measurement": "Kd", "setting": "[2]", "value": 1.8, "unit": "nM"},
      {"measurement": "koff", "setting": "[2]", "value": 0.00037, "unit": "s⁻¹"},
      {"measurement": "kon", "setting": "[2]", "value": 207000, "unit": "M⁻¹ s⁻¹"}
    ]},
    {"substance": "SARS-CoV-2 RBD B.1.525, Eta, Iota (E484K) (from UniProt P0DTC2 331-527) (domain or fragment)", "values": [
      {"measurement": "Kd", "setting": "[1]", "value": 1.6, "unit": "nM"},
      {"measurement": "koff", "setting": "[1]", "value": 0.000511, "unit": "s⁻¹"},
      {"measurement": "kon", "setting": "[1]", "value": 310000, "unit": "M⁻¹ s⁻¹"},
      {"measurement": "Kd", "setting": "[2]", "value": 2, "unit": "nM"},
      {"measurement": "koff", "setting": "[2]", "value": 0.000415, "unit": "s⁻¹"},
      {"measurement": "kon", "setting": "[2]", "value": 210000, "unit": "M⁻¹ s⁻¹"}
    ]},
    {"substance": "SARS-CoV-2 RBD B.1.351, Beta (K417N, E484K, N501Y) (from UniProt P0DTC2 331-527) (domain or fragment)", "values": [
      {"measurement": "Kd", "setting": "[1]", "value": 1.8, "unit": "nM"},
      {"measurement": "koff", "setting": "[1]", "value": 0.000538, "unit": "s⁻¹"},
      {"measurement": "kon", "setting": "[1]", "value": 294000, "unit": "M⁻¹ s⁻¹"},
      {"measurement": "Kd", "setting": "[2]", "value": 2.1, "unit": "nM"},
      {"measurement": "koff", "setting": "[2]", "value": 0.000436, "unit": "s⁻¹"},
      {"measurement": "kon", "setting": "[2]", "value": 206000, "unit": "M⁻¹ s⁻¹"}
    ]},
    {"substance": "SARS-CoV-2 RBD E484K, N501Y (from UniProt P0DTC2 331-527) (domain or fragment)", "values": [
      {"measurement": "Kd", "setting": "[1]", "value": 1.9, "unit": "nM"},
      {"measurement": "koff", "setting": "[1]", "value": 0.000512, "unit": "s⁻¹"},
      {"measurement": "kon", "setting": "[1]", "value": 277000, "unit": "M⁻¹ s⁻¹"},
      {"measurement": "Kd", "setting": "[2]", "value": 2.3, "unit": "nM"},
      {"measurement": "koff", "setting": "[2]", "value": 0.000412, "unit": "s⁻¹"},
      {"measurement": "kon", "setting": "[2]", "value": 177000, "unit": "M⁻¹ s⁻¹"}
    ]},
    {"substance": "SARS-CoV-2 RBD B.1.427/429, Epsilon (L452R) (from UniProt P0DTC2 331-527) (domain or fragment)", "values": [
      {"measurement": "Kd", "setting": "[1]", "value": 0.08, "unit": "nM"},
      {"measurement": "koff", "setting": "[1]", "value": "1.21e-05", "unit": "s⁻¹"},
      {"measurement": "kon", "setting": "[1]", "value": 156000, "unit": "M⁻¹ s⁻¹"},
      {"measurement": "Kd", "setting": "[2]", "value": 1.2, "unit": "nM"},
      {"measurement": "koff", "setting": "[2]", "value": 0.000133, "unit": "s⁻¹"},
      {"measurement": "kon", "setting": "[2]", "value": 109000, "unit": "M⁻¹ s⁻¹"}
    ]},
    {"substance": "SARS-CoV-2 RBD K417N (from UniProt P0DTC2 331-527) (domain or fragment)", "values": [
      {"measurement": "Kd", "setting": "[1]", "value": 1.3, "unit": "nM"},
      {"measurement": "koff", "setting": "[1]", "value": 0.000457, "unit": "s⁻¹"},
      {"measurement": "kon", "setting": "[1]", "value": 353000, "unit": "M⁻¹ s⁻¹"},
      {"measurement": "Kd", "setting": "[2]", "value": 1.7, "unit": "nM"},
      {"measurement": "koff", "setting": "[2]", "value": 0.000352, "unit": "s⁻¹"},
      {"measurement": "kon", "setting": "[2]", "value": 211000, "unit": "M⁻¹ s⁻¹"}
    ]},
    {"substance": "SARS-CoV-2 RBD B.1.617.2, Delta (L452R, T478K) (from UniProt P0DTC2 331-527) (domain or fragment)", "values": [
      {"measurement": "Kd", "setting": "[1]", "value": "< 0.001", "unit": "nM"},
      {"measurement": "koff", "setting": "[1]", "value": "< 1e-07", "unit": "s⁻¹"},
      {"measurement": "kon", "setting": "[1]", "value": 90000, "unit": "M⁻¹ s⁻¹"},
      {"measurement": "Kd", "setting": "[2]", "value": 0.72, "unit": "nM"},
      {"measurement": "koff", "setting": "[2]", "value": "4.1e-05", "unit": "s⁻¹"},
      {"measurement": "kon", "setting": "[2]", "value": 57000, "unit": "M⁻¹ s⁻¹"}
    ]},
    {"substance": "SARS-CoV-2 RBD P.1, Gamma (K417T, E484K, N501Y) (from UniProt P0DTC2 331-527) (domain or fragment)", "values": [
      {"measurement": "Kd", "setting": "[1]", "value": 4.2, "unit": "nM"},
      {"measurement": "koff", "setting": "[1]", "value": 0.000305, "unit": "s⁻¹"},
      {"measurement": "kon", "setting": "[1]", "value": 73500, "unit": "M⁻¹ s⁻¹"},
      {"measurement": "Kd", "setting": "[2]", "value": 6.5, "unit": "nM"},
      {"measurement": "koff", "setting": "[2]", "value": 0.000508, "unit": "s⁻¹"},
      {"measurement": "kon", "setting": "[2]", "value": 78000, "unit": "M⁻¹ s⁻¹"}
    ]}
  ]
}
